# Tested on: MS2 coat protein
# Test: apparent KD of MS2 coat protein; designed switch direction (-1 OFF switch, 1 ON switch): 1; higher = weaker reporter binding
# In short: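 Designed RNA switches sharing common flanks were transcribed on Illumina chips by stalled E. coli RNA polymerase. They were titrated with SNAP-549-labelled MS2 coat protein, from 0.7 or 1.5 nM doubling to 3 µM, in Tris-HCl pH 7.5 buffer with KCl, MgCl2, BSA, DTT, tRNA and Tween-20. Titrations ran without input, with 200 uM small-molecule ligand, or with an oligonucleotide input. The apparent KD of each design is the median over its clusters, after curve-fitting of normalised cluster fluorescence.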
# [1] = input ligand: microRNA oligo, concentration not stated
# [2] = Eterna round: R95, input ligand: FMN 200 uM
# [3] = Eterna round: R95, input ligand: microRNA oligo, concentration not stated
# [4] = Eterna round: R95, input ligand: none
Sequence,apparent KD of MS2 coat protein (input ligand: FMN 200 uM) [nM],apparent KD of MS2 coat protein [1] [nM],apparent KD of MS2 coat protein (input ligand: none) [nM],apparent KD of MS2 coat protein [2] [nM],apparent KD of MS2 coat protein [3] [nM],apparent KD of MS2 coat protein [4] [nM]
"UGUUGUUAAUUAGGAUAUGGUCACAUGAGGAUCACCCAUGUAAUGUCGAUGCUAUGUGGAUCCGAUCAGAAGGAAUGGCUAACA [SameState NG2 #95] (Eterna round: R96, puzzle: Same State NG 2)",201,121,204,–,–,–
"AUAUAUAUAAGGAAGGAUAUCUUAGAAAAAACAUGAGGAUCACCCAUGUAAAUAAAGAAUAAAUGGGAGAAGGUCCAUAUAUAUA [77%, More Tesla, 10] (Eterna round: R96, puzzle: Same State 2)",–,22,–,–,–,–
AAAACACAUGAGGAUCACCCAUGUACCAGGUACAUAGGAUAUCCAGGCGCCAGAUGGCGCGGAGAAGGAUGGAAAA [Xeveoned] (puzzle: Same State 1),–,–,–,90.8,162,251
"GGUAUCGGCACAGGAUAUGCUAUCCUUUGGGUAGCAGAAGGGUGGACAUGAGGAUCACCCAUGUGGGUGCCAGGGCGUGAGCCC [JL SSNG1 1.85] (Eterna round: R96, puzzle: Same State NG 1)",912,363,907,–,–,–
AGUCUACGGUGACGUAGACAGUAGUGCGUACAUGAGGAUCACCCAUGUCAUGUAAGAGUUACUUGUUCGUCUUGAAC [SENSOR #3] (puzzle: Sensor for hsa-mir-208a),–,–,–,20.4,16.9,20.2
"GAGAGACGAUUAGGAUAUACGGUGAUAAUGAUAGUAGAAGGAAUUGACAUGAGGAUCACCCAUGUAGGAAUAAUCCAGAGAGAG [Parity 26 - Jieux - Same State NG 1] (Eterna round: R96, puzzle: Same State NG 1)",81.2,93.2,86.8,–,–,–
"GGCCUCUGUCAAGGAUAUGCUACCGUUUCGGUAGCAGAAGGUGAUCACAUGCGGGUCACCCAUGUUUAGGCCCUCUGGCCCGCC (Eterna round: R96, puzzle: Same State NG 1)",19.1,10.2,18.6,–,–,–
AGCAUACAUGAGGAUCACCCAUGUCAACUUAGUCGAGGAUAUGGGCAGCCCUGAGGCGAACCAGAAGGCGAAUUGA [Mat - Same State 1 - Mod of JL - D1] (puzzle: Same State 1),–,–,–,28.3,51.5,66.1
GGCAGGUGCAGGCUUGCUUGCACCUGGAAACAUGAGGAUCACCCAUGUUUGGGACAAGCUUUGCUCUUCGUCUUUUC [JL ViennaUCT Isusreraar mod 5] (puzzle: Sensor for hsa-mir-208a),–,–,–,43.7,55.1,54.2
"GUUCGGAAUCGAGCUGACAUGAGGAUCACCCAUGUUAGUGGGAAGGAUAUGGUACAGAAACUGUACCAGAAGGUCUUACUGUCU (Eterna round: R96, puzzle: Same State NG 3)",47,66.7,67.4,–,–,–
"UUUUCGAACCGAGGAUAUCCUUAUAAGAAACAUGAGGAUCACCCAUGUAAAGGGAAUUAUUUGUAGGAGAAGGCGGAUUUUGUU [JR_SSNG2_Sub054] (Eterna round: R96, puzzle: Same State NG 2)",–,33.9,–,–,–,–
"UGAACCGUCACAGGAUAUCAUGCGAAAAUUGCGUGAGAAGGGUGGAUGUUGUGUUCAAAGUUAUACAUGAGGAUCACCCAUGUU [SameState NG1 #46] (Eterna round: R96, puzzle: Same State NG 1)",29.8,45.8,65.5,–,–,–
"ACAUGAGAGUGAGGAUAUAUAGUACCUACAUGUGACAUGAGGAUCACCCAUGUGGUAAGUAUGACAUAGAAGGCACAGAUAUGU [Equivalance 100 - Jieux - Same State NG 2] (Eterna round: R96, puzzle: Same State NG 2)",37.9,71.4,84.2,–,–,–
CAGUGCUGUUGAGAGGAUAUGCGGCGACGGACAUGAGGAUCACCCAUGUUAGCGACAGCGUUGCGGCAGAAGGCUCUGCCCGCUA [Soteed Omei mod 51] (puzzle: Same State 2),–,–,–,–,39.3,–
"GGUGGGUUGCUGCCGGCACAUGAGGAUCACCCAUGUUUUGGGAAGGAUAUGGUACCUCUUUGGUGCCAGAAGGUCCCGUUGGUG [salish99_SSNG3_r04_713] (Eterna round: R96, puzzle: Same State NG 3)",2020,503,1740,–,–,–
"ACAUGAGAGUUAGGAUAUGUUGUACCUACAUGUGACAUGAGGAUCACCCAUGUGGUAAGUAUGAGGCAGAAGGGACAGAUAUGU [Equivalence 46 - Jieux - Same State NG 2] (Eterna round: R96, puzzle: Same State NG 2)",75.7,51.7,137,–,–,–
AUAAAACAUGAGGAUCACCCAUGUCAACUAAGUCGAGGAUAUGGGCAAAUAAAAUAAGAACCAGAAGGCGAAUAAU [salish99_ss1_r3_041] (puzzle: Same State 1),–,–,–,34.3,322,361
GGAGCCUGCACUGAGGAUAUUCAUAUUUAAACAUGAGGAUCACCCAUGUAGGCCAGAAGGCCUUGGGAGAAGGCAGGUCGGCUCG [salish99_ss2_r3_083] (puzzle: Same State 2),–,–,–,35.3,372,780
"CCUGCAAUUAACGCCUACAUGAGGAUCACCCAUGUAUGUAGGCAGGAUAUCGUUUGCUUUGCAAACGAGAAGGGCUGUAGUAGC [salish99_SSNG3_R04_002] (Eterna round: R96, puzzle: Same State NG 3)",18.7,15.4,18.9,–,–,–
"AAAGAAAACAUAGGAUAUGUAACAUGAGGAUCACCCAUGUGUAGCCCGUAAGGGAUGACGGAUGGACAGAAGGAUGGUCUCAGG [Default title] (Eterna round: R96, puzzle: Same State NG 2)",403,155,104,–,–,–
"AGCUAUUAAUCAGGAUAUGGUCACAUGAGGAUCACCCAUGUAACGAUGAUAUAAUGUGGUCAAGACUAGAAGGGAUUGCUAACA [SameState NG2 #66] (Eterna round: R96, puzzle: Same State NG 2)",169,221,191,–,–,–
"GCCAUCGUGUGAGGAUAUGGCACCGAAACGGUGCCAGAAGGCAUGUCAAUUGACAUGAGGAUCACCCAUGUAUUAGCGAUGGCA [Mat - Same State NG 1 - JL mod - D86] (Eterna round: R96, puzzle: Same State NG 1)",181,994,1360,–,–,–
"AGAUCAUGACGAGGAUAUGGAACAUGAGGAUCACCCAUGUAUGUUCCAUAACGCGAAUGACGAAUCCAGAAGGCGUCGUGGUCA [JL SSNG2 1.10] (Eterna round: R96, puzzle: Same State NG 2)",15.6,112,168,–,–,–

# — the supplement of paper PMC9170038
